Measurements: patent publication US20190071490A1, “Preventing Post-Ictal Headaches” (Beth Israel Deaconess Medical Center, Inc., priority 2017, published 2019)
Where a chain is given by its changes, count along the chain named. Names and notes keep the numbering of the source.

T1: human α-CGRP (Homo sapiens, UniProt P06881)
T1 construct: 1-37 (WT); purchased GenScript Corporation or Global Peptide Services
T1 sequence (P06881 83-119 limits assumed): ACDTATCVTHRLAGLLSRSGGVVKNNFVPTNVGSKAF

T2: rat α-CGRP (Rattus norvegicus, UniProt P01256)
T2 construct: rat α (1-37); purchased GenScript Corporation or Global Peptide Services
T2 sequence (P01256 83-119 limits assumed): T1 sequence (P06881 83-119 limits assumed) with A1S, D3N, N25D, K35E

B1: M77: G1 variant; L1 R28N T30S; L2 G50A L56T; H2 E54K A57D; HC-FW3 L99T A100V (antibody, V domains shown)
VH: EVQLVESGGGLVQPGGSLRLSCAASGFTFSNYWISWVRQAPGKGLEWVAEIRSKSDDSATHYAEAVKGRFTISRDNAKNSLYLQMNSLRAEDTAVYYCTVYFDYGLAIQNYWGQGTLVTVSS
VL: EIVLTQSPATLSLSPGERATLSCKASKNVSTYVSWYQQKPGQAPRLLIYAASNRYTGIPARFSGSGSGTDFTLTISSLEPEDFAVYYCSQSYNYPYTFGQGTKLEIK
B2: M84: G1 variant; L1 R28N T30V; L2 A51H L56T; H2 E54N A57N; HC-FW3 L99T A100V (antibody, V domains shown)
VH: B1 VH with K54N, D57N
VL: B1 VL with S30V, A50G, A51H
B3: M81: G1 variant; L1 R28N T30S; L2 L56S; H2 E54K A57N S58E; HC-FW3 L99T A100V (antibody, V domains shown)
VH: B1 VH with D57N, S58E
VL: B1 VL with A50G, T56S
B4: M80: G1 variant; L1 R28N T30S; L2 L561; H2 E54K A57N; S58V (printed in L1 column); HC-FW3 L99T A100V (antibody, V domains shown)
VH: B1 VH with D57N, S58V
VL: B1 VL with A50G, T56I
B5: M83: G1 variant; L1 R28N T30V; L2 A51H L56T; H2 E54K A57N S58M; H61F (printed in L1 column); HC-FW3 L99T A100V (antibody, V domains shown)
VH: B1 VH with D57N, S58M, H61F
VL: B1 VL with S30V, A50G, A51H
B6: M21: G1 variant; L1 R28W; HC-FW3 L99S (antibody, V domains shown)
VH: B1 VH with K54E, D57A, T99S, V100A
VL: B1 VL with N28W, S30T, A50G, T56L
B7: M20: G1 variant; L1 R28W; HC-FW3 L99R A100L (antibody, V domains shown)
VH: B1 VH with K54E, D57A, T99R, V100L
VL: B1 VL with N28W, S30T, A50G, T56L
B8: M82: G1 variant; L1 R28N T30V; L2 A51H L56T; H2 A57N; HC-FW3 L99T A100V (antibody, V domains shown)
VH: B1 VH with K54E, D57N
VL: B1 VL with S30V, A50G, A51H
B9: M78: G1 variant; L1 R28N T30S; L2 G50A L56T; H2 E54K A57N S58T; HC-FW3 L99T A100V (antibody, V domains shown)
VH: B1 VH with D57N, S58T
VL: B1 VL
B10: M79: G1 variant; L1 R28N T30S; L2 G50A L56T; H2 E54K A57P; HC-FW3 L99T A100V (antibody, V domains shown)
VH: B1 VH with D57P
VL: B1 VL

Target: T1, human α-CGRP
Assay: Biacore SPR affinity of Fab fragments to N-biotinylated human α-CGRP on SA chip
Format: binding
Details: 37° C., screening mode except underlined values
Protocol: (§1) Affinity determination of the Fabs. Affinities of the anti-CGRP monoclonal antibodies were determined at either 25° C. or 37° C. using the BIACORE3000™ surface plasmon resonance (SPR) system (Biacore, INC, Piscataway N.J.) with the manufacture's own running buffer, HBS-EP (10 mM HEPES pH 7.4, 150 mM NaCl, 3 mM EDTA, 0.005% v/v polysorbate P20). Affinity was determined by capturing N-terminally biotinylated CGRP peptides (custom ordered from GenScript Corporation, New Jersey or Global Peptide Services, Colorado) via pre-immobilized streptavidin on SA chip and measuring binding kinetics of antibody Fab titrated across the CGRP surface. Biotinylated CGRP was diluted into HBS-EP and injected over the chip at a concentration of less than 0.001 mg/ml. Using variable flow time across the individual chip channels, two ranges of antigen density were achieved: <50 response units (RU) for detailed kinetic studies and about 800 RU for concentration studies and screening. […] After each binding cycle, surfaces were regenerated with 25 mM NaOH in 25% v/v ethanol, which was tolerated over hundreds of cycles. Kinetic association rate (kon) and dissociation rate (koff) were obtained simultaneously by fitting the data to a 1:1 Langmuir binding model (Karlsson et al. (1994). Methods Enzymology 6. 99-110) using the BIAevaluation program. Global equilibrium dissociation constants (KD) or “affinities” were calculated from the ratio KD=koff/kon.
(§2) Biacore assay for affinity determination. […] All Biacore assays were conducted in HBS-EP running buffer (10 mM HEPES pH 7.4, 150 mM NaCl, 3 mM EDTA, 0.005% v/v polysorbate P20). CGRP surfaces were prepared by diluting the N-biotinylated CGRP to a concentration of less than 0.001 mg/mL into HBS-EP buffer and injecting it across the SA sensor chip using variable contact times. Low capacity surfaces, corresponding to capture levels <50 response units (RU) were used for high-resolution kinetic studies, whereas high capacity surfaces (about 800 RU of captured CGRP) were used for concentration studies, screening, and solution affinity determinations. […] Samples were typically injected for 1 minute at 100 μL/min and dissociation times of at least 10 minutes were allowed. After each binding cycle, surfaces were regenerated with 25 mM NaOH in 25% v/v ethanol, which was tolerated over hundreds of cycles. An entire titration series (typically generated in duplicate) was fit globally to a 1:1 Langmuir binding model using the BIAevaluation program. This returned a unique pair of association and dissociation kinetic rate constants (respectively, kon and koff) for each binding interaction, whose ratio gave the equilibrium dissociation constant (KD=koff/kon).
(§3) High-resolution analysis of binding interactions with extremely slow off rates. […] The protocol described above was used with the following modifications. The association rate constant (kon) was determined by injecting a 2-fold titration series (in duplicate) spanning 550 nM-1 nM for 30 seconds at 100 μL/min and allowing only a 30 second dissociation phase. The dissociation rate constant (koff) was determined by injecting three concentrations (high, medium, and low) of the same titration series in duplicate for 30 seconds and allowing a 2-hour dissociation phase. The affinity (KD) of each interaction was obtained by combining the kon and koff values obtained in both types of experiments, as shown in Table 4.

α-human koff [s⁻¹] | Molecule
0.000477 | B1
0.00108 | B2
0.00049 | B3
0.00209 | B4
0.000933 | B5
0.000142 | B6
0.000136 | B7
0.000877 | B8
0.00131 | B9
0.00129 | B10

Target: T2, rat α-CGRP
Assay: Biacore SPR affinity of Fab fragments to N-biotinylated rat α-CGRP on SA chip
Format: binding
Details: 37° C., screening mode except underlined values
Protocol: as §1, §2, §3

α-rat koff [s⁻¹] | α-rat koff (1/s) | Molecule
0.0143 | – | B1
0.0176 | – | B2
0.00429 | – | B3
0.0993 | – | B4
– | No binding | B5
0.000695 | – | B6
0.00144 | – | B7
0.00699 | – | B8
0.167 | – | B9
0.19 | – | B10
